Data reported in US20140363428A1 (Chugai, published 2014).
Numbering of substitutions follows the chain as printed.

B1: IgG1-F1071 (antibody)
heavy: QVQLQESGPGLVKPSETLSLTCAVSGHSISHDHAWSWVRQPPGEGLEWIGFISYSGITNYNPSLQGRVTISRDNSKNTLYLQMNSLRAEDTAVYYCARSLARTTAMDYWGEGTLVTVSSASTKGPSVFPLAPSSKSTSGGTAALGCLVKDYFPEPVTVSWNSGALTSGVHTFPAVLQSSGLYSLSSVVTVPSSSLGTQTYICNVNHKPSNTKVDKKVEPKSCDKTHTCPPCPAPELLGGPSVFLFPPKPKDTLYISRTPEVTCVVVDVSHEDPEVKFNWYVDGVEVHNAKTKPREEQYNSTYRVVSVLTVLHQDWLNGKEYKCKVSNKALPAPIEKTISKAKGQPREPQVYTLPPSRDELTKNQVSLTCLVKGFYPSDIAVEWESNGQPENNYKTTPPVLDSDGSFFLYSKLTVDKSRWQQGNVFSCSVMHEALHYHVTSKSLSLSP
light: not shown
notes: VH3-IgG1 with Fc substitutions (EU numbering) + L(WT)-CK
B2: IgG1-F1098 (antibody)
heavy: B1 heavy with S241D, V438Y, S440Q
light: not shown
notes: as for B1
B3: IgG1-F1095 (antibody)
heavy: B1 heavy with S385N, G387S, V438Y, S440Q
light: not shown
notes: as for B1
B4: IgG1-F1131 (antibody)
heavy: B1 heavy with L237R, S241K, V424E, S440Q
light: not shown
notes: as for B1
B5: IgG1-F1142 (antibody)
heavy: B1 heavy with L237R, S241K, V424E, S426R, S440R, S442E
light: not shown
notes: as for B1
B6: IgG1-F1099 (antibody)
heavy: B1 heavy with K328D, L330Y, V438Y, S440Q
light: not shown
notes: as for B1
B7: IgG1-F1107 (antibody)
heavy: B1 heavy with V424D, S440Q
light: not shown
notes: as for B1
B8: IgG1-F1097 (antibody)
heavy: B1 heavy with G387N, P389S, V438Y, S440Q
light: not shown
notes: as for B1
B9: IgG1-F1128 (antibody)
heavy: B1 heavy with Q313H, S440Q
light: not shown
notes: as for B1
B10: IgG1-F1123 (antibody)
heavy: B1 heavy with T252V, T309Q, V310P, Q313A, S440Q, S442E
light: not shown
notes: as for B1
B11: IgG1-F1133 (antibody)
heavy: B1 heavy with L237R, S241K, S426R, S440Q
light: not shown
notes: as for B1
B12: IgG1-F1143 (antibody)
heavy: B1 heavy with L237R, S241K, V424S, S426R, S440R, S442E
light: not shown
notes: as for B1
B13: IgG1-F1080 (antibody)
heavy: B1 heavy with S426N, V438Y, S440Q
light: not shown
notes: as for B1
B14: IgG1-F1105 (antibody)
heavy: B1 heavy with V424S, S426R, S440Q
light: not shown
notes: as for B1
B15: IgG1-F1073 (antibody)
heavy: B1 heavy with S440Q, S442R
light: not shown
notes: as for B1
B16: IgG1-F1074 (antibody)
heavy: B1 heavy with S241D, S440Q
light: not shown
notes: as for B1
B17: IgG1-F1127 (antibody)
heavy: B1 heavy with Q313A, S440Q
light: not shown
notes: as for B1
B18: IgG1-F1100 (antibody)
heavy: B1 heavy with S241D, K328D, L330Y, V438Y, S440Q
light: not shown
notes: as for B1
B19: IgG1-F1077 (antibody)
heavy: B1 heavy with K250N, V438Y, S440Q
light: not shown
notes: as for B1
B20: IgG1-F1139 (antibody)
heavy: B1 heavy with L237R, S241K, S426N, S440Q
light: not shown
notes: as for B1
B21: IgG1-F1145 (antibody)
heavy: B1 heavy with T252V, T309Q, Q313A, S440R, S442E
light: not shown
notes: as for B1
B22: IgG1-F1116 (antibody)
heavy: B1 heavy with T309Q, Q313A, S426N, V438Y, S440Q
light: not shown
notes: as for B1
B23: IgG1-F1096 (antibody)
heavy: B1 heavy with Q388T, V438Y, S440Q
light: not shown
notes: as for B1
B24: IgG1-F1119 (antibody)
heavy: B1 heavy with T252V, T309Q, V310P, Q313A, V424E, S440Q
light: not shown
notes: as for B1
B25: IgG1-F1134 (antibody)
heavy: B1 heavy with L237R, S241K, S440R
light: not shown
notes: as for B1
B26: IgG1-F1141 (antibody)
heavy: B1 heavy with V424S, S426R, S440R, S442E
light: not shown
notes: as for B1
B27: IgG1-F1072 (antibody)
heavy: B1 heavy with S440Q, S442E
light: not shown
notes: as for B1
B28: IgG1-F1113 (antibody)
heavy: B1 heavy with S440Q, S442D
light: not shown
notes: as for B1
B29: IgG1-F1140 (antibody)
heavy: B1 heavy with V424E, S426R, S440R, S442E
light: not shown
notes: as for B1
B30: IgG1-F1121 (antibody)
heavy: B1 heavy with T252V, T309Q, V310P, Q313A, V424E, S426R, S440Q
light: not shown
notes: as for B1
B31: IgG1-F1130 (antibody)
heavy: B1 heavy with T309A, Q313A, S440Q
light: not shown
notes: as for B1
B32: IgG1-F1106 (antibody)
heavy: B1 heavy with S440R, S442E
light: not shown
notes: as for B1
B33: IgG1-F1129 (antibody)
heavy: B1 heavy with T309Q, Q313H, S440Q
light: not shown
notes: as for B1
B34: IgG1-F1104 (antibody)
heavy: B1 heavy with V424E, S426R, S440Q
light: not shown
notes: as for B1
B35: IgG1-F1079 (antibody)
heavy: B1 heavy with E384N, N386S, V438Y, S440Q
light: not shown
notes: as for B1
B36: IgG1-F1103 (antibody)
heavy: B1 heavy with S241D, T309Q, Q313A, K328D, L330Y, V438Y, S440Q
light: not shown
notes: as for B1
B37: IgG1-F1126 (antibody)
heavy: B1 heavy with T309A, S440Q
light: not shown
notes: as for B1
B38: IgG1-F1111 (antibody)
heavy: B1 heavy with S426K, S440Q
light: not shown
notes: as for B1
B39: IgG1-F1138 (antibody)
heavy: B1 heavy with L237R, S241K, S440R, S442E
light: not shown
notes: as for B1
B40: IgG1-F1109 (antibody)
heavy: B1 heavy with V424T, S440Q
light: not shown
notes: as for B1
B41: IgG1-F1110 (antibody)
heavy: B1 heavy with V424Q, S440Q
light: not shown
notes: as for B1
B42: IgG1-F1082 (antibody)
heavy: B1 heavy with V438Y, S440N
light: not shown
notes: as for B1
B43: IgG1-F1120 (antibody)
heavy: B1 heavy with T252V, T309Q, V310P, Q313A, S426R, S440Q
light: not shown
notes: as for B1
B44: IgG1-F1118 (antibody)
heavy: B1 heavy with T252V, T309Q, V310P, Q313A, S426N, S440Q
light: not shown
notes: as for B1
B45: IgG1-F1112 (antibody)
heavy: B1 heavy with S440K
light: not shown
notes: as for B1
B46: IgG1-F1144 (antibody)
heavy: B1 heavy with L237R, S241K, T252V, T309Q, V310P, Q313A, S440R, S442E
light: not shown
notes: as for B1
B47: IgG1-F1115 (antibody)
heavy: B1 heavy with S426N, S440Q
light: not shown
notes: as for B1
B48: IgG1-F1136 (antibody)
heavy: B1 heavy with L237R, S241K, V424E, S426R, S440Q
light: not shown
notes: as for B1
B49: IgG1-F1101 (antibody)
heavy: B1 heavy with S241D, T309Q, Q313A, V438Y, S440Q
light: not shown
notes: as for B1
B50: IgG1-F1102 (antibody)
heavy: B1 heavy with T309Q, Q313A, K328D, L330Y, V438Y, S440Q
light: not shown
notes: as for B1
B51: IgG1-F1122 (antibody)
heavy: B1 heavy with T252V, T309Q, V310P, Q313A, S440R
light: not shown
notes: as for B1
B52: IgG1-F1114 (antibody)
heavy: B1 heavy with S440Q, S442Q
light: not shown
notes: as for B1
B53: IgG1-F1083 (antibody)
heavy: B1 heavy with V438Y, S440Q, S442N
light: not shown
notes: as for B1
B54: IgG1-F1108 (antibody)
heavy: B1 heavy with V424K, S440Q
light: not shown
notes: as for B1
B55: IgG1-F1117 (antibody)
heavy: B1 heavy with T252V, T309Q, Q313A, S426N, S440Q
light: not shown
notes: as for B1
B56: IgG1-F1076 (antibody)
heavy: B1 heavy with S241D, K328D, L330Y, S440Q
light: not shown
notes: as for B1
B57: IgG1-F1137 (antibody)
heavy: B1 heavy with L237R, S241K, V424S, S426R, S440Q
light: not shown
notes: as for B1
B58: IgG1-F1135 (antibody)
heavy: B1 heavy with L237R, S241K, S440Q, S442E
light: not shown
notes: as for B1
B59: IgG1-F1124 (antibody)
heavy: B1 heavy with T252V, T309Q, V310P, Q313A, S440R, S442E
light: not shown
notes: as for B1

These binders were tested against T1, soluble human FcRn (heterodimer of FcRn alpha chain and beta2-microglobulin) (human, UniProt P55899 24-297; P61769 21-119) (assay: SPR Biacore T100, antibody captured via protein L, hFcRn analyte, pH 7.0, 25 C;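 also: KD derived from kinetic ka and kd fits of sensorgrams, CM4 sensor chip, sodium phosphate NaCl Tween20 running buffer, buffer-only injection used as reference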).
T1 construct: Expressed in HEK293H and purified on IgG Sepharose; also called hFcRn
T1 sequence (P55899 24-297 limits assumed, chain 1 of 2): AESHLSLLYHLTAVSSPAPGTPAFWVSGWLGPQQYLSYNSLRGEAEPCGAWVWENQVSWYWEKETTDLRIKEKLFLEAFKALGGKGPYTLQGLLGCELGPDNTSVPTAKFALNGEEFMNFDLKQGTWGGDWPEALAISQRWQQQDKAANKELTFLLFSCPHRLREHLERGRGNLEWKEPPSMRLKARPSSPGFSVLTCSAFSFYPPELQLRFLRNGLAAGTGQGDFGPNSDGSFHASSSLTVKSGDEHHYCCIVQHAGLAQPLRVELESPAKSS
T1 sequence (P61769 21-119 limits assumed, chain 2 of 2): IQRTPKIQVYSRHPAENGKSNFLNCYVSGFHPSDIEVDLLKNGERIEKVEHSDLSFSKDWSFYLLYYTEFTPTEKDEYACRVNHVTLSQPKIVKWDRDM
For B1, the Kd was 120 nM. B2 gave a Kd of 260 nM. Binder B3 has a Kd of 290 nM. For B4, the Kd was 130 nM. B5 was tested, and the Kd was 190 nM. B6 was tested, and the Kd was 260 nM. For B7, the Kd was 120 nM. B8 showed a Kd of 280 nM. B9 showed a Kd of 120 nM. Work on B10 yielded a Kd of 9.5 nM. B11 gave a Kd of 160 nM. Work on B12 yielded a Kd of 200 nM. B13 showed a Kd of 320 nM. Binder B14 has a Kd of 150 nM. In the case of B15, the Kd is reported as 130 nM. Binder B16 has a Kd of 130 nM. For B17, the Kd was 79 nM. Work on B18 yielded a Kd of 240 nM. In the case of B19, the Kd is reported as 2000 nM. For B20, the Kd was 150 nM. Binder B21 has a Kd of 52 nM. B22 gave a Kd of 74 nM. In the case of B23, the Kd is reported as 270 nM. B24 showed a Kd of 10 nM. For B25, the Kd was 170 nM. B26 was tested, and the Kd was 180 nM. B27 was tested, and the Kd was 130 nM. In the case of B28, the Kd is reported as 120 nM. B29 showed a Kd of 160 nM. With B30 the Kd was 10 nM. With B31 the Kd was 55 nM. Work on B32 yielded a Kd of 140 nM. Work on B33 yielded a Kd of 45 nM. In the case of B34, the Kd is reported as 180 nM. With B35 the Kd was 340 nM. Work on B36 yielded a Kd of 61 nM. Work on B37 yielded a Kd of 90 nM. B38 gave a Kd of 160 nM. B39 was tested, and the Kd was 170 nM. B40 showed a Kd of 130 nM. B41 was tested, and the Kd was 130 nM. Work on B42 yielded a Kd of 280 nM. B43 showed a Kd of 10 nM. In the case of B44, the Kd is reported as 13 nM. With B45 the Kd was 120 nM. For B46, the Kd was 14 nM. B47 gave a Kd of 130 nM. Work on B48 yielded a Kd of 160 nM. In the case of B49, the Kd is reported as 66 nM. In the case of B50, the Kd is reported as 65 nM. Binder B51 has a Kd of 14 nM. B52 gave a Kd of 130 nM. Work on B53 yielded a Kd of 350 nM. B54 gave a Kd of 130 nM. In the case of B55, the Kd is reported as 49 nM. With B56 the Kd was 130 nM. B57 gave a Kd of 160 nM. B58 showed a Kd of 130 nM. With B59 the Kd was 12 nM.
